Assay: soluble on expression in E. coli; label from the status in PepcDB or PDB records

Soluble on expression in E. coli, not soluble:
MGSDKIHHHHHHMADNKIIQHVYIVGSKGIPANYGGFETFVEKLTAGQENRQIKYHVASRFDNSEQAGKKQRFEYNGADVFSIDVPNIGSAQAIVYDYKALKEAIRISKQNQDKHPIFYVLANRIGPFAKHFAKEIHALGGRFYLNPDGHEWARAKWPKPVRKYWKYSEKKMVAAADLIIADNPEIEKYIKKEYSSFHPQTTYIAYGTDVQRSKLTMKDQKVRDWFKQKRITENNYFLVVGRFVPENNYETMIREFMTSRTKKDFVLVTNVEKNRFYERLKQRTHFDQDPRIKFVGTVYDQELLKYIRENAFAYFHGHEVGGTNPSLLEALSMTRLNMLIDVPFNRAVAKEGAMYWNKAIGNLTAQINQTETYDKKRIIDYTQAARKRVTDEFTWESIIAKYEELFVS
MGSDKIHHHHHHMAEAQLSLNLDIKHDASLSDFSGPGWMSIIDAVRQLHVGLIGQLYLFGSPATGKSHLLSAICESFIEMDKSAICLSLNELIHTDVNVLSSLENFSLIAIDDLEVIEQNSQWQEALFHLINRSREGQRQLLFAANKPASELPFQLRDLLTRLAQAPSFKVPTGHDLADREALLQSILRRRGWQFDERIANYLLTEGPHRIGAMMEVLNYIQPMFSNLGRSNISKAVIGDALRTIDEQTLAAELADIAQESQVDNDAADQDQHSQHTMPLDF
MGSDKIHHHHHHMAETFPLLAAQPIYDNKNRFYAVELLYRSALNLTAETVGDTAATSEVVFNLCAGITSQTEHYDATAFINVSSEFLVSQSFLPLEPDKVVIELVERIKPTRAVVNAVARWYEKGFRFALDDFEFDPAWEPLLQYASYIKVDVSTLTLAQARVFKQKLSGFKGKWLAERVEDEATKQAYEELGFELFQGYYFAKPAIVYGTRLEPSSLQLAKVLSLCFEEEPDLTELSRVISEDPQLSVCLLKIVNSPLYPTASPITRVKDVIMRLGIEKLRRWIALIGAVTASSPEASRMVLVRAQMCYELAKWKSSPGLDADQCYFVGLLSGVDIMLGVDKASFFEKLPLSEQTRKAVEDCDGPMGQCLRIALKLERLVRMKEGLDKVDSRLLTTYQSVSTKVQELFNTI
MGSDKIHHHHHHMAFILMQNINKTFHGVKALNRVNLSLDYGEALCLAGQNGCGKSTLIKILSGVYQPDKGAEIQIGASKYTKLTPQASIEQGIQVIYQDLALFPNLTVAENIAINLHRKLGWVSQSEIHQVALNAILSINADLDLNAILEDLPIAQQQLVAICRALAQNARLLIMDEPTASLTAKEVQDLLKVVLKLKSKGISIIFVSHKLQEVMSVSDTVLVLKNGNMVGQYPISEMDEKRLGFLMTGLEIDYKRLDLPDFSQNRTVLEVQNLTLPNQYESINFSLREGEIIALTGLLGSGRTELCLSLFGITQPKSGDILLNGEKVIFQNNRDAIKQGIAYVSEDRMTTGLIMTESIHHNIISTIFHKITDKFNIIKSSKAYNYSQELIESLKIKVTDSDLPVNTLSGGNAQRVSIAKWLAIDPRIIILDAPTIGVDIANKEGIFQIIRTLAQKGIAVIFVTDEVEEAYYNSHKVIVMKKGKIVGEILPIYTTEKSIAEVVYENHQ
MGSDKIHHHHHHMAFNLDALASVVVDDSIKGIPFGARLGIADIANQGWNVLAGDLPLPAAIIRADALAHNSRWMQRFVSERGALIAPHVKTTMCPQIIARQIADGAWGVTVATVQQMRVCRNFGADRIILANQAVGRSELDAITAMVKEPDLDFMMIVDSAVGIEAAAEAVRRNRLDRPLQLLLERGYPGGRTGCRTNDIALALARQIRATPELRLVGIEAFEGLIQTENGSPEQAVGLFMDEIAALFGLCADDGLFESDAPLVTAGGSSHYDIVIDRLAHCTARVVTRSGCYVTHDSGLYRIAHQRLQAKIGEQDGLRRALEIWTYVQSIPEPGLALLTAGRRDCGTDSGFPVPLLLSSAGAYPRDLPPGCEVINLNDQHAYMRFPPDLPLAVGDRVGLGISHPCTTFDKWQIIYLVDSDYRVIEAMKTFF
MGSDKIHHHHHHMAFSFDSRIRYSEVDSSCRLSLTGLTNYFQDCSVFHSQSHDVGIRFLADNHIAWVLSSWQICINRLPLLNEQVKISTWAYGMKAFYGYRNFTLEDAGGSTLAYANSVWVLVDTRTGRPVKVPQEFADTYGLEPQLEMECAKRKLHIPDDMEKKGEIVVPQFFIDSNHHMNNEKYVMLAQQLLPNDFEISELRVEYRKEAKLGDTVISYVKYTSKSVTVVLADTDKKPYSVVEFLSKPVPGK
MGSDKIHHHHHHMAFYPVHKELQNISQSMPQGNFGLWYNKFIPLSDDAFKPSDDKGSNGKGDENRPVDYYFGQYSKLRLNAAETAAILKQKHEDMDDFCANFPPQKYEEIAICATLDSPLITGIGESHPHEVSMVFDHNMGIPYIPASGVKGIVRFAHTISLIPEAMNKAEVIDNVRFDDEADWTSVPHMFGTQKNRGNVIFLDAYPEDIPALHMDIMNPHYSPYYSEGKPPADHHNPTPIKFLTVAKGTKFIFRAVAKKEQNLPQKIRVAFAEALTKEGVGAKIALGYGRFVIDEDGQKVLLKKRKQRHEEKKRRLSPWLDYIELINQVGDWGQFKQIVLDNEKLVEYRKEMDVTEAVRIKALEIRNKWRKSWGASRDEQIATWLQPAGVEWPCIVAGIENPVKEKSADYEKIMQLIDWGAYKSAGIDLSKLPLDALQLLKQKMEEWGCYSKKAKEDKKTAFKKVKDLLRQHQK
MGSDKIHHHHHHMAHADIFNAIYTNKVWGNGSGEGSAEELTRDYRKFLHNFLRANHIRSVVDLGCGDWQFSRHMDWSGIEYCGIDVSSVVLETTRNFSAPNIRFQEMNGIEGELPSADLLICKDVVQHWSNTDILQLFPKLPRFRLALITNAFHPAITENQDIVTGDFRPLNLLAKPFDIKGSYIYCFMAGEPKGVFLWSRGD
MGSDKIHHHHHHMAKAKTQFVCSNCGYSTPRYLGRCPNCGEWNTLTEEHFDTKPDRKSRVSFAGKSAKPQRLKEVSLTKTPRVKTKLKEFNRVLGGGVVPGSLVLIGGDPGIGKSTLLLQVSGQLAETGGSVLYVTGEESASQVKMRADRLAVSSEDFYLYPETDMSNIRSTIESTHPEFVVIDSVQTMQEPDMDSAIGSVSQIREITAELLQIAKTNGITIFIVGHVTKGGAIAGPKILEHMVDTVLYFEGDLHHTYRILRAVKNRFGSTNELGIFEMRTGGLYEVANPSEIFLEERLKDATGSAIVVSMEGTRPILVEVQALVTPTVFGNAKRTASGLDHNRVSLIMAVLEKRASLMLQNQDAYLKAAGGVKLDEPAIDLAIAVSVASSYRDQQTRPSDCFVGEVGLTGEIRRVNRIESRVGEAAKLGFKRIFIPKNNLQGWDIPTGIEVIGVATLKEALQLALQQPNY
MGSDKIHHHHHHMAKIAYILLCHKDPDAIIMQAERLTAAGDYMSIHFDARARKADFARIRKALADNPNVTFARRRIKCGWGEWSLVQATLNAIEAAVDEFPRATHFYMLSGDCMAIKTAEYAHSFLDAQDKDYIESFDYFESDWIKTGWKEERLIYRHWFNERTQKRRFYAMFQAQKRLGLTREIPSDIQVMIGSQWWCLRRRTIEWILDFTRKRRDVMQFFATTWIPDETFFQTLVRHLIPEDEIDPRTLTFLMFSDYGMPVSFYNDHYDLLLSQDFLFARKISPEAKELKARLGRLYAAHGVQFQISNEGRNLYKFLTGRGRIGRRFSMRFWETESTLGRERELMILVCKKWHVAKRLLDQIRQVTNVPSIEYLFNEEGTPLPDLGGIQATLEKRTRHRRALMRMLFEYFDTDRLVICLDPTNLELMHDFFSDRSVTRMLEIECQFTDEYLIGHSYRVGLAGERTPKATLERLLPTIRNEMTYEADRIRDAGFARYGRIHQTSTPEENADKVAEFLSIPWDQALRITQTDHLFAD
MGSDKIHHHHHHMALEPQIKSAPTPVILIVEPYGGSIRQQNPNLPMVFWDDAALTRGDGIFETLLIRDGHACNVRRHGERFKASAALLGLPEPILEDWEKATQMGIESWYSHPNAGEASCTWTLSRGRSSTGLASGWLTITPVSSDKLAQREHGVSVMTSSRGYSIDTGLPGIGKATRGELSKVERTPAPWLTVGAKTLAYAANMAALRYAKSNGFDDVIFTDGDRVLEGATSTVVSFKGDKIRTPSPGGDILPGTTQAALFAHATEKGWRCKEKDLSIDDLFGADSVWLVSSVRGPVRVTRLDGHKLRKPDNEKEIKALITKALG
MGSDKIHHHHHHMALSADSRLQFTSDLNICRILNGMWQVSGGHGKINAPAAIKTMFQYVDAGFTTWDLADHYGPAEDFIGEFRRQLVANRGKEALANIQAFTKWVPRPGRMTKKLVEENIDISRRRMDVESLDLMQFHWWDYQDKNYLDALKYMAELQTEGKIKHLALTNFDTEHLQIITEAGIKIVSNQVQFSLVDRRPEVNMVKFCQQHDIKLFTYGTLCGGLLSEKYIGKPEPRGFDLGTTSLRKYKNMVDAWGGWHLFQELLSTLKQIADKHGVSIANVATRYILDKPAVGGVIVGARLGISEHIADNAKVFSFTLDAEDSNVINTISSQSRDLYQLIGDCGDEYRR
MGSDKIHHHHHHMALWQYSFRGGDDMKFAHLERLNLTLRALAPVFIGSGEQLGKKEYIFDSPNALIYFPDFPRLVAFLKERSLLAEYEKFLSTPRLKDIRVFLEENGISAADYPSFVRYSIAAGEAAHIENFREVLTFIKDSKGYPYIPGSSLKGAIRTALATYLLKRGDWERDRRNIEGSDSSVPARKYLARESSTVEKKVFYQLDIRNPKDGKEISSPINDLMQGIRISDSAALSFENLTLTGKYDRKPDGTVNLLPIFRECLTPGSEAHLQLTLDLPMLARVGLNAGIIEEALHDFADEHYAHFEQYFAELPEDASVAAKEGVDIFLGGGVGYVSKTLTYNLFPQRENAVSLAAKILTKQFSPKHGHSKDASQYKVSPHILKTTMYAGEYYHMGKCELIITR
MGSDKIHHHHHHMANFIEKITYLGTPAIKAGNEHLEMIVVPEWGSNVISLVDKTTNVQLLREPETAESFHDTPTLYGIPILFPPNRISDGTFSFRGRTYHFDINEKDKHNHLHGFLYHEKWNVVTTKQTDEGVIVETEIDLSELPHVQKQFPHHAVVRMTYTIKENTLFKHATVMNKGKEAFPWGIGYHTTFIFPAESSLFSLTADQQWELDERLLPTGKLMDVPYKEALHEGMDLRHKQLDDVFLSSYQKRGGENQAVIYHQHAHISIIYKADEQFKHWVVYNADGKQGYLCPEPYTWVTNAVNLDLPSSLTGLQVLEPGEETTAKSSITIELNHQ
MGSDKIHHHHHHMANLNDFTFFVHVVDHGGFAPAARALNLPKSTLSKRVAELEKDLGVRLINRTSRHFAVTESGKDFYRHAAAMMIEAEAAENVVRGRLAEPSGTVRITASVPTAQLSLAPLLPQLALAYPKLRVTLHATDRFVDVIQDGFDLAVRDHFAPLPDSGLVQRRIGFQAKLIVASPLYLQGNGTPERPEDLDHHDGLLTSLASEGWVMERADGSTVSVSPRPRFVADESRVLREAALAGLGITTLPGKLCQQEIESGTLIRILPEWTAGKVMTTILMPHRRGQLPSVRATVDFIAERLVDG
MGSDKIHHHHHHMAQALYANVAVVNSKEHKDLKIKPINHFRYAAKIQSCPISDIEFFPCSLSHPIMFAKAEDGKIVPLALMGLERETNQFVSSEGVWKEGEYMPAFLRRYPFIMVRDPENTRMVVGLDMDAEGVNRDEGRELFDEKSEASEFAKSAMKFLTDFQEAFDRTQNFLAKMSELELFDDAVFNWEFKGVTSSFGGFMRIDEKKLDELDDETLLALTRSGHYKLIVAHLVSLRRFQRLVDWKMRPAS

— the DeepSol protein solubility set
